# Data: paper PMC10899662, “TopBP1 utilises a bipartite GINS binding mode to support genome replication” (Nature Communications, 2024)
# Residues, ends and D or L forms follow the SMILES beside them. No end group written: not given here. *: point of attachment. 5FAM = O=C1OC2(c3ccc(O)cc3Oc3cc(O)ccc32)c2ccc(C(=O)*)cc21; Flu = fluorescein
# Assays:
# GINS tetramer = biological target: T1, GINS tetramer (Homo sapiens, UniProt Q14691+Q9BRT9+Q9BRX5+Q9Y248); experiment: Fluorescence polarisation of fluorescein-labelled GINI-core peptides with GINS; format: binding; details: room temperature
# T1 construct: made in house; host or cells: SF9 insect cells, single baculovirus made with pBig1a
# Description: As the predicted interface between the TopBP1-GINI region and GINS[32] was not evident in our cryo-EM map we used additional interaction experiments to validate a role for this motif in GINS binding. The GINI region had been loosely defined as sitting between TopBP1-BRCT3 and BRCT4 (Fig. 1a(i)). […] We mutated this core, and other regions of conservation, to generate the mutants TopBP1-Gcc (GINI centre core), Gcore (GINI core) and RI-III (regions I-III) (Fig. 3a, Supplementary Fig. 7). […] To test if this helix constituted a GINS-interaction surface, we used fluorescence polarisation (FP). A fluorescently labelled GINI-core peptide (Ala478-Gly497) bound the GINS tetramer with a dissociation constant of Kd of ~8 µM (Fig. 3d). […] We therefore concluded that the GINI region is a GINS interaction site in its own right, but with moderate binding affinity.
# Fig. 3 The conserved core of the TopBP1-GINI domain is required for a stable interaction with GINS. a Domain model and T-COFFEE alignment (one-letter aa code) of TopBP1 proteins from humans (Q92547) Xenopus laevis (Q7ZZY3), Bos taurus (A0A3Q1LWE4) and Rattus norvegicus (A0A8I6GFZ6). […] Source data are provided as a Source data file. d Fluorescence polarisation measurements including dissociation constants (kD) calculations using recombinant GINS tetramer and fluorescently labelled TopBP1-GINI-core peptides (WT or Gpp (a)). […]
# [1] = biological target: GINS (6xHis-3xFlag-Sld5, Psf1, Psf2, Psf3) for pulldown experiments (UniProt Q9BRT9)
# GINS complex = experiment: Size exclusion chromatography co-elution with GINS; format: binding; details: Superdex200; 20 µM of each component; 10 mM HEPES pH 7.5, 150 mM NaCl, 0.5 mM TCEP
# Procedure: Recombinant TopBP1 and GINS proteins were mixed in an equimolar ratio to give a final concentration of 20 µM of each component and incubated on ice for at least 30 min prior to application to a Superdex200increase 10 300 column (GE Healthcare, Little Chalfont, UK) equilibrated in 10 mM HEPES pH 7.5, 150 mM NaCl, 0.5 mM TCEP.
# GINS = experiment: Pulldown of recombinant TopBP1-BRCT0-5 by immobilised GINS, 150 mM NaCl; format: binding; details: summary of recombinant protein interaction tests (yes/no)
# Description: Fig. 1 GINS and TopBP1 interact. a (i) Domain model of human (hs) TopBP1, its conservation with BRCT1/2 and 3/4 domains (grey boxes) of budding yeast Dpb11 (scDpb11). Arrows point to binding domains for interacting proteins. (ii) Overview of TopBP1 wild type (WT) and BRCT deletion (Δ) and point mutants. GINS binding capabilities are labelled in red and green. Numbers, amino acid position; capital letters indicate amino acid substitutions. Amino acid substitutions of point mutants in BRCT4 (B4mut) and 5 (B5mut) are coloured orange. b Elution profiles of size exclusion chromatography (Superdex200) of individual recombinant TopBP1-BRCT0-5 protein (grey) and GINS tetramers (green), or of both upon incubation (blue). c Recombinant GINS immobilised on Flag-beads and control beads (Flag peptide-coupled beads) were used to pull down recombinant TopBP1-0-5-WT or TopBP1-ΔBRCT4/5 (compare a(ii)). SDS gels were silver stained. kDa specifies molecular weight marker bands. The experiment was done more than three times with similar results. Source data are provided as a Source data file. TEXT PRINTED IN THE PICTURE: (a) BRCT0-5-WT: GINS binding? (rec. proteins): yes | (a) ΔBRCT4/5: GINS binding? (rec. proteins): no | (a) ΔBRCT3: GINS binding? (rec. proteins): yes | (a) ΔBRCT0/1/2: GINS binding? (rec. proteins): yes | (a) B5mut: GINS binding? (rec. proteins): yes | (a) B4mut: GINS binding? (rec. proteins): no
# Fig. 2 Protein structure of the GINS-TopBP1-BRCT4/5 complex. a Structural model of the GINS-TopBP1-BRCT4/5 complex. Crystal structures of the GINS subunits (PDB:2E9X) (shades of green, yellow), and the central BRCT4/5 domain of TopBP1 (PDB:3UEN) (grey) were docked into the cryo-EM volume shown as transparent volume. b Zoom-in of the BRCT4-Psf1 interface. The residues in stick representation appear crucial for the interface. Mutations to break the interaction are coloured pink (Psf1-I97R) and purple (TopBP1-B4mut; compare Fig. 1a(ii)). c Pulldown of the indicated recombinant TopBP1-BRCT0-5-strep versions (see Fig. 1a(ii)) by Flag-beads-immobilised recombinant GINS or Flag peptide-coupled control beads. Analysis was done by immunoblotting. The experiment was done more than three times with similar results. d Pulldown of the indicated recombinant TopBP1-BRCT0-5-WT-strep using immobilised GINS-WT or GINS carrying a Ile97 to arginine mutation in Psf1.TopBP1-Gcc/B4mut-strep (Figs. 1a(ii) and 3a) was used as a non-GINS binding control. The experiment was done twice with similar results. Source data are provided as a Source data file.
# Fig. 3 The conserved core of the TopBP1-GINI domain is required for a stable interaction with GINS. a Domain model and T-COFFEE alignment (one-letter aa code) of TopBP1 proteins from humans (Q92547) Xenopus laevis (Q7ZZY3), Bos taurus (A0A3Q1LWE4) and Rattus norvegicus (A0A8I6GFZ6). Coloured boxes indicate GINI region mutants in sub-regions I (blue), II (green) and III (orange), and in the GINI core helix (red) (details in Supplementary Fig. 7). Amino acid substitutions, names of GINI core region mutations and corresponding GINS binding capabilities are shown. ., : and * indicate low conservation, high conservation and identical amino acids, respectively. b/c Pulldown of recombinant TopBP1-BRCT0-5-strep-WT or the indicated GINI region mutants (a) by bead-immobilised GINS or Flag peptide-coupled control beads. Analysis was done by immunoblotting. The experiments were done more than three times with similar results. Source data are provided as a Source data file. d Fluorescence polarisation measurements including dissociation constants (kD) calculations using recombinant GINS tetramer and fluorescently labelled TopBP1-GINI-core peptides (WT or Gpp (a)). For each peptide n = 3 independent experiments and data are presented as mean values +/−SEM. TEXT PRINTED IN THE PICTURE: (a) TopBP1-Gcc: GINS binding? (rec. proteins): no | (a) TopBP1-Gcore: GINS binding? […]
# [2] = biological target: T2, GINS (HIS-(3C)-Sld5, Psf1, Psf2, Psf3) for structural and fluorescence polarisation studies (UniProt Q9BRT9 1-223; Q14691 1-196; Q9Y248 1-185; Q9BRX5 1-216); experiment: fluorescence polarisation; 100 nM fluorescein-labelled peptide, increasing concentrations of GINS; 25 mM HEPES pH 7.5, 150 mM NaCl, 1 mM EDTA, 0.25 mM TCEP, 0.02% Tween 20; room temperature; details: both partners purified
# T2 construct: Sld5 subunit of GINS; Psf1 subunit of GINS, with its B domain; Psf2 subunit of GINS; Psf3 subunit of GINS; A 3C site follows the His tag on Sld5; no cleavage is described; also called GINS tetramer; GINS complex; source: Sf9 insect cells, single baculovirus (pBig1a), purified (TALON, Superdex200); copies: + + +
# T2 sequence (Q9BRT9 whole entry, chain 1 of 4): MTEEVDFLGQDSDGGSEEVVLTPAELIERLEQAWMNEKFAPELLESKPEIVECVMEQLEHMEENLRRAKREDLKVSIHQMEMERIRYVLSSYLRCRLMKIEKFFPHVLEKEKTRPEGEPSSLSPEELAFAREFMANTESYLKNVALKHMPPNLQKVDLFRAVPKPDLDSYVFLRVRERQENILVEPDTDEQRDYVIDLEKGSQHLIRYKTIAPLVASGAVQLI
# T2 sequence (Q14691 whole entry, chain 2 of 4): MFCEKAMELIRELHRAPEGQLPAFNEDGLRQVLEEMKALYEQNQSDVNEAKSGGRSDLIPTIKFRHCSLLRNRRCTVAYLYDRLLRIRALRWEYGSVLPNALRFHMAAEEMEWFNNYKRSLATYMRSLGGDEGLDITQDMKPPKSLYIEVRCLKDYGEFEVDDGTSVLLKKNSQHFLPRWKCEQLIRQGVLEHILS
# T2 sequence (Q9Y248 whole entry, chain 3 of 4): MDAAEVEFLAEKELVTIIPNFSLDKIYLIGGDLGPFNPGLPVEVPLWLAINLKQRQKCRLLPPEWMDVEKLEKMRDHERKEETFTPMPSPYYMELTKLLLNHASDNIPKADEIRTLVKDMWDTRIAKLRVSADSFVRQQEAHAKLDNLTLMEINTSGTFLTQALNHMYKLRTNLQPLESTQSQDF
# T2 sequence (Q9BRX5 whole entry, chain 4 of 4): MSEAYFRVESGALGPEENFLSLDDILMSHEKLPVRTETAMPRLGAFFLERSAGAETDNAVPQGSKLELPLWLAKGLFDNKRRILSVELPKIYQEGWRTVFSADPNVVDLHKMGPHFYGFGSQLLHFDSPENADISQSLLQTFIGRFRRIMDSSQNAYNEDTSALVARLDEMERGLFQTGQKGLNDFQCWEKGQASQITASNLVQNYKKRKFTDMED
# T1 sequence (Q14691 whole entry): as the sequence (Q14691 whole entry, chain 2 of 4) above
# T1 sequence (Q9BRX5 whole entry): as the sequence (Q9BRX5 whole entry, chain 4 of 4) above
# T1 sequence (Q9Y248 whole entry partner): as the sequence (Q9Y248 whole entry, chain 3 of 4) above
# T1 sequence (Q9BRT9 whole entry partner): as the sequence (Q9BRT9 whole entry, chain 1 of 4) above
# Chain of GINS (6xHis-3xFlag-Sld5, Psf1, Psf2, Psf3) for pulldown experiments (Q9BRT9 whole entry, chain 1 of 4): as above
# Chain of GINS (6xHis-3xFlag-Sld5, Psf1, Psf2, Psf3) for pulldown experiments (Q14691 whole entry, chain 2 of 4, further chain): as the sequence (Q14691 whole entry, chain 2 of 4) above
# Chain of GINS (6xHis-3xFlag-Sld5, Psf1, Psf2, Psf3) for pulldown experiments (Q9Y248 whole entry, chain 3 of 4, further chain): as the sequence (Q9Y248 whole entry, chain 3 of 4) above
# Chain of GINS (6xHis-3xFlag-Sld5, Psf1, Psf2, Psf3) for pulldown experiments (Q9BRX5 whole entry, chain 4 of 4, further chain): as the sequence (Q9BRX5 whole entry, chain 4 of 4) above
# Chain of TopBP1-BRCT0-5-Gcc (Q92547 1-766): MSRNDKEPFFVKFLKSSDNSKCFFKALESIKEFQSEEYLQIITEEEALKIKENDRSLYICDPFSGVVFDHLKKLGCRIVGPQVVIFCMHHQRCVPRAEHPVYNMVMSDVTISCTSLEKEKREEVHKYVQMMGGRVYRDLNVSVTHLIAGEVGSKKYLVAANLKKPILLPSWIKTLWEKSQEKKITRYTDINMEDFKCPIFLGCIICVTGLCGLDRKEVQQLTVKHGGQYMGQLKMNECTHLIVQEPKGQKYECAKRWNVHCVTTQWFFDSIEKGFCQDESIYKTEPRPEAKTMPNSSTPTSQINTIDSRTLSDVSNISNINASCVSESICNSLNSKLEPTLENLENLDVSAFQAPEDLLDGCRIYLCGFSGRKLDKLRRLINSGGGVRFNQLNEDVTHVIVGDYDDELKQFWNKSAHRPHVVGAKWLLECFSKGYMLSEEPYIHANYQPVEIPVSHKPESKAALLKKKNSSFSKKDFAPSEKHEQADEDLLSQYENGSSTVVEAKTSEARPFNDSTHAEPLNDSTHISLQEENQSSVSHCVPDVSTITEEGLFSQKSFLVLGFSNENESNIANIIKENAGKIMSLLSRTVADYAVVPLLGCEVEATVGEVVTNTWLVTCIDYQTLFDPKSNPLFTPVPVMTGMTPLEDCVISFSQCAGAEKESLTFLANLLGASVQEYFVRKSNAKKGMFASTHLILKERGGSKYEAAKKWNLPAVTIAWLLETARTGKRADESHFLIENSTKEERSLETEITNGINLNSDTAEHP
molecule,measurement,setting,value
"Flu-GYGAPSEKHEQADEDPPSQYENG [TOPBP1(478-497) L490P L491P, fluorescein-labelled GINI-core peptide with LL to PP mutation]",binding to GINS by fluorescence polarisation,"GINS tetramer; peptide 100 nM, 150 mM NaCl, n = 3",failed to bind
CC(C)C[C@H](NC(=O)[C@H](CC(=O)O)NC(=O)[C@H](CCC(=O)O)NC(=O)[C@H](CC(=O)O)NC(=O)[C@H](C)NC(=O)[C@H](CCC(N)=O)NC(=O)[C@H](CCC(=O)O)NC(=O)[C@H](Cc1c[nH]cn1)NC(=O)[C@H](CCCCN)NC(=O)[C@H](CCC(=O)O)NC(=O)[C@H](CO)NC(=O)[C@@H]1CCCN1C(=O)[C@H](C)NC(=O)CNC(=O)[C@H](Cc1ccc(O)cc1)NC(=O)CNC(=O)c1ccc2c(c1)C(=O)OC21c2ccc(O)cc2Oc2cc(O)ccc21)C(=O)N[C@@H](CC(C)C)C(=O)N[C@@H](CO)C(=O)N[C@@H](CCC(N)=O)C(=O)N[C@@H](Cc1ccc(O)cc1)C(=O)N[C@@H](CCC(=O)O)C(=O)N[C@@H](CC(N)=O)C(=O)NCC(=O)O [TOPBP1(478-497)] (5FAM-GYGAPSEKHEQADEDLLSQYENG-OH),Kd,"GINS tetramer; fluorescein-labelled peptide 100 nM, increasing GINS, 25 mM HEPES pH 7.5, 150 mM NaCl, 1 mM EDTA, 0.25 mM TCEP, 0.02% Tween 20, n = 3 independent experiments, interval printed in figure (7.037 - 8.809), read-out: dissociation constant Kd (fluorescence polarisation)",7.88 µM
TopBP1-BRCT0-5-Gcc (from UniProt Q92547 1-766) (domain or fragment),"reduction of nucleotide incorporation (α-32P-dCTP) in TopBP1-depleted Xenopus egg extract after add-back, 120 min time point",[1],21%
"TopBP1-ΔBRCT0/1/2: TopBP1-BRCT0-5 with BRCT0-2 module removed (protein, left off: His, N-terminal, state not stated | Strep, C-terminal, state not stated, TopBP1-BRCT0-5 with BRCT0-2 module removed) NSLNSKLEPTLENLENLDVSAFQAPEDLLDGCRIYLCGFSGRKLDKLRRLINSGGGVRFNQLNEDVTHVIVGDYDDELKQFWNKSAHRPHVVGAKWLLECFSKGYMLSEEPYIHANYQPVEIPVSHKPESKAALLKKKNSSFSKKDFAPSEKHEQADEDLLSQYENGSSTVVEAKTSEARPFNDSTHAEPLNDSTHISLQEENQSSVSHCVPDVSTITEEGLFSQKSFLVLGFSNENESNIANIIKENAGKIMSLLSRTVADYAVVPLLGCEVEATVGEVVTNTWLVTCIDYQTLFDPKSNPLFTPVPVMTGMTPLEDCVISFSQCAGAEKESLTFLANLLGASVQEYFVRKSNAKKGMFASTHLILKERGGSKYEAAKKWNLPAVTIAWLLETARTGKRADESHFLIENSTKEERSLETEITNGINLNSDTAEHP",co-elution with GINS from size exclusion column,GINS complex,did not affect binding
same,GINS binding? (rec. proteins),GINS,yes
"Flu-GYGAPSEKHEQADEDLLSQYENG (not fully specified; printed as Flu-GYGAPSEKHEQADEDLLSQYENG, three residues printed before the TopBP1 stretch Ala478-Gly497; human TopBP1 GINI core, Ala478-Gly497; also called TopBP1-GINI-core peptide WT; source: synthetic peptide (Peptide Protein Research Ltd)) [fluorescently labelled GINI-core peptide (Ala478-Gly497), WT]",Kd,[2],~8 µM
